{"source": "paper PMC7736355", "key": {"[1]": {"biological_target": "VP1 protein from GI.1 Norwalk strain (GI.1 WT) (human norovirus GI.1 Norwalk strain)", "assay": "SEC; analytical size-exclusion chromatography, Superdex 200 Increase 10/300 GL in PBS, 200 µg VLPs; fractions analysed by SDS–PAGE"}, "[2]": {"biological_target": "VP1 protein from GI.1 Norwalk strain (GI.1 WT) (human norovirus GI.1 Norwalk strain)", "assay": "negative staining electron microscopy; VLP samples at ~0.1 mg/mL (0.01–0.05 mg/mL when fragments were present) in 10 mM HEPES pH 7.0, 150 mM NaCl; 0.75% uranyl formate; reference-free 2D class averages"}}, "data": [{"substance": "VP1 protein from GI.1 Norwalk strain (GI.1 WT) (natural protein)", "values": [{"measurement": "fraction of the sample present as VP1 dimers (rest in the void peak as non-dissociated VLPs)", "setting": "[1]", "result": 20, "unit": "%"}, {"measurement": "stoichiometry N", "setting": "[1]", "result": 2}, {"measurement": "stoichiometry N", "setting": "[2]", "result": 2}]}]}
